Assay results from patent publication US20100080799.

Test system: recombinant H2A.X (WT), N-terminal 6xHis tag

recombinant N-terminal portion of WSTF (N-WSTF)
kinase activity (in vitro kinase assay): Only N-WSTF had kinase activity
